The values that follow come from article PMC3017759.

Assay [1] deals with IL4Rα (Homo sapiens) (UniProt P24394). As to conditions: cited from earlier work.
The target in assay [2] is γc (Homo sapiens) (UniProt P31785). The note with it: cited from earlier work.
For assay [3], the target named is IL13Rα1 (Homo sapiens) (UniProt P78552). The note with it: cited from earlier work.
Assay [4] addresses M. musculus (C57BL/6) IL4Rα extracellular domain (M. musculus (C57BL/6)) (UniProt P16382). Description: SPR; BIAcore 2000; about 1400 RU of IL4Rα immobilised on a CM5 chip by amine linkage; graded doses of IL4 in the mobile phase; HBS-EP (10 mM HEPES pH 7.4, 150 mM NaCl, 3 mM EDTA, 0.005% P-20); 25°C; flow 3 μl/min; 1:1 Langmuir fit; average of two independent experiments on two chips.
Chain of UniProt P16382 (P16382 26-233): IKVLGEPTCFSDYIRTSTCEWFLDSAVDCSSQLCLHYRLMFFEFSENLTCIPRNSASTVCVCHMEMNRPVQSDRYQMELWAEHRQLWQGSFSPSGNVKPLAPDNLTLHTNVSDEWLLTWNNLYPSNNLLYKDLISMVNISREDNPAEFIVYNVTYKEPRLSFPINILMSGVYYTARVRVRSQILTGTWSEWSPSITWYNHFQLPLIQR

Chain of UniProt P24394 (P24394 26-232): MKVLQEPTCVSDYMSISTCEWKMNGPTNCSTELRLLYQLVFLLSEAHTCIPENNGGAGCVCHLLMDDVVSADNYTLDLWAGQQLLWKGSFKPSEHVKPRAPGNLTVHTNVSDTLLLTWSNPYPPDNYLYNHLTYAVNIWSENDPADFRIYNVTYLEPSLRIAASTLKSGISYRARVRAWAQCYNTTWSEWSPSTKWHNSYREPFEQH
Chain of IL4 (P05112 25-153): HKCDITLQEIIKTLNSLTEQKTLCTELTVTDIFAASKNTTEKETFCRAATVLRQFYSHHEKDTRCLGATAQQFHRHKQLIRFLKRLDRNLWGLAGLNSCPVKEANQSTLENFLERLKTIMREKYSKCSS
Chain of UniProt P78552 (P78552 22-343): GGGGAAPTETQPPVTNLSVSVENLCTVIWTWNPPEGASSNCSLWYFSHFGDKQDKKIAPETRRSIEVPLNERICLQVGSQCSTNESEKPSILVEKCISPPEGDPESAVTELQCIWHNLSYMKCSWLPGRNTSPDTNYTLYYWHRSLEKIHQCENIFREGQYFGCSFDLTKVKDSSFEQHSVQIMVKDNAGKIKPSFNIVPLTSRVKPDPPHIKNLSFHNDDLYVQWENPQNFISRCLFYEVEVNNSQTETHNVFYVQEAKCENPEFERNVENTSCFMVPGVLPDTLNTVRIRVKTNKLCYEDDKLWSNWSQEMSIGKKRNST
Chain of UniProt P31785 (P31785 23-262): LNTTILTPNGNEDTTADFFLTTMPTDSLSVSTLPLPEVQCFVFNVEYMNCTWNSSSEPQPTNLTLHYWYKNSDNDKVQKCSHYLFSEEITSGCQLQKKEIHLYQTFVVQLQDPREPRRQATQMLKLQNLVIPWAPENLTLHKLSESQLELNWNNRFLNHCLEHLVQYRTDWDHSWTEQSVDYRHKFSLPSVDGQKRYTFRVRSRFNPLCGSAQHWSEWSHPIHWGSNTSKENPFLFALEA

The term Kd denotes the constant that tells how readily two partners part at equilibrium. Regarding IL4 (from UniProt P05112), the Kd in assay [1] is 1 nM.
With IL4/IL4Rα complex (from UniProt P05112), the Kd in assay [2] and in assay [3] was 500 nM throughout.
As usually defined, the koff is the rate constant with which the complex falls apart. A lower koff goes with slow dissociation. Usually kon stands for a measure of how fast the partners come together. Read a high kon as fast association. In assay [4], “recombinant CAST/Ei IL4 (interleukin-4, Mus musculus castaneus allotype) (from UniProt P07750 21-140) (ligand)” showed a Ka of 4.44e+09 M⁻¹, a dissociation constant (Kd) of 0.226 nM, a koff of 0.000713 s⁻¹ and a kon of 3.16e+06 M⁻¹ s⁻¹.
